The values below come from paper doi:10.1101/2021.11.15.468682.

This assay addresses T1, HsPlk4 PB3 (aa 884-970) (Homo sapiens), O00444.
T1 chain: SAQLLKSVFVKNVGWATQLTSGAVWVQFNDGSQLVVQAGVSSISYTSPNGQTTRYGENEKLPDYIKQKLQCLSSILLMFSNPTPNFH
Nature of the assay: SEC-MALS. Particulars: remark: other sources report otherwise. For orientation: Size exclusion chromatography separates by hydrodynamic size, large species first.

B1: HsPlk4 PB3 (aa 884-970), O00444 884-970 (domain or fragment)
chain: SAQLLKSVFVKNVGWATQLTSGAVWVQFNDGSQLVVQAGVSSISYTSPNGQTTRYGENEKLPDYIKQKLQCLSSILLMFSNPTPNFH
For B1, the stoichiometry N is 2.

Usually stoichiometry N stands for a count of units in the complex or per binding partner.
